B1: EEHEE_rd4_0469 (parent)
chain: ITIHVNGVTYHFDNPEEAEKFAQKMAKTYQLKMEIHNGEFHME

The results in this text go back to the MegaScale stability set (Tsuboyama et al. 2023).

In this data set the parent is B1. Briefly: folding stability dG (cDNA display proteolysis); higher = more stable. The note with it: PBS, room temperature.
For the variant ITIHVNHVTYHFDNPEEAEKFAQKMAKTYQLKMEIHNGEFHME [G7H], the “folding stability dG” value was 1.13 kcal/mol.

On to ITIHVNVVTYHFDNPEEAEKFAQKMAKTYQLKMEIHNGEFHME [G7V], for which the “folding stability dG” value worked out at 1.83 kcal/mol.

Take ITIHVNIVTYHFDNPEEAEKFAQKMAKTYQLKMEIHNGEFHME [G7I]: the “folding stability dG” value was determined as 2.4 kcal/mol.

On to ITIHVNYVTYHFDNPEEAEKFAQKMAKTYQLKMEIHNGEFHME [G7Y], for which the “folding stability dG” value is 1.26 kcal/mol.

As for ITIHVNEVTYHFDNPEEAEKFAQKMAKTYQLKMEIHNGEFHME [G7E], the “folding stability dG” value was determined as 0.803 kcal/mol.

Consider ITIHVNNVTYHFDNPEEAEKFAQKMAKTYQLKMEIHNGEFHME [G7N], for which the “folding stability dG” value amounted to 1.07 kcal/mol.

With ITIHVNQVTYHFDNPEEAEKFAQKMAKTYQLKMEIHNGEFHME [G7Q], the “folding stability dG” value is 0.959 kcal/mol.

On to ITIHVNTVTYHFDNPEEAEKFAQKMAKTYQLKMEIHNGEFHME [G7T], for which the “folding stability dG” value amounted to 0.96 kcal/mol.

On to ITIHVNLVTYHFDNPEEAEKFAQKMAKTYQLKMEIHNGEFHME [G7L], for which the “folding stability dG” value came out at 1.33 kcal/mol.

Take ITIHVNDVTYHFDNPEEAEKFAQKMAKTYQLKMEIHNGEFHME [G7D]: the “folding stability dG” value is 0.859 kcal/mol.

For ITIHVNKVTYHFDNPEEAEKFAQKMAKTYQLKMEIHNGEFHME [G7K], the “folding stability dG” value was determined as 1 kcal/mol.

For ITIHVNAVTYHFDNPEEAEKFAQKMAKTYQLKMEIHNGEFHME [G7A], the “folding stability dG” value came out at 0.95 kcal/mol.

ITIHVNSVTYHFDNPEEAEKFAQKMAKTYQLKMEIHNGEFHME [G7S]: the “folding stability dG” value is 1.07 kcal/mol.

In the case of ITIHVNFVTYHFDNPEEAEKFAQKMAKTYQLKMEIHNGEFHME [G7F], the “folding stability dG” value came to 1.65 kcal/mol.

Consider ITIHVNRVTYHFDNPEEAEKFAQKMAKTYQLKMEIHNGEFHME [G7R], for which the “folding stability dG” value came to 1.04 kcal/mol.

For the variant ITIHVNWVTYHFDNPEEAEKFAQKMAKTYQLKMEIHNGEFHME [G7W], the “folding stability dG” value came to 1.43 kcal/mol.

For the variant ITIHVNMVTYHFDNPEEAEKFAQKMAKTYQLKMEIHNGEFHME [G7M], the “folding stability dG” value amounted to 1.22 kcal/mol.

For ITIHVNPVTYHFDNPEEAEKFAQKMAKTYQLKMEIHNGEFHME [G7P], the “folding stability dG” value is -0.022 kcal/mol.

As for ITIHVNGYTYHFDNPEEAEKFAQKMAKTYQLKMEIHNGEFHME [V8Y], the “folding stability dG” value came out at 1.29 kcal/mol.

As to ITIHVNGATYHFDNPEEAEKFAQKMAKTYQLKMEIHNGEFHME [V8A], the “folding stability dG” value turned out to be 1.11 kcal/mol.

Regarding ITIHVNGNTYHFDNPEEAEKFAQKMAKTYQLKMEIHNGEFHME [V8N], the “folding stability dG” value stood at 1.12 kcal/mol.

As to ITIHVNGITYHFDNPEEAEKFAQKMAKTYQLKMEIHNGEFHME [V8I], the “folding stability dG” value was 1.13 kcal/mol.

For ITIHVNGKTYHFDNPEEAEKFAQKMAKTYQLKMEIHNGEFHME [V8K], the “folding stability dG” value was determined as 1.38 kcal/mol.

With ITIHVNGQTYHFDNPEEAEKFAQKMAKTYQLKMEIHNGEFHME [V8Q], the “folding stability dG” value is 1.06 kcal/mol.

Turning to ITIHVNGWTYHFDNPEEAEKFAQKMAKTYQLKMEIHNGEFHME [V8W], the “folding stability dG” value came out at 1.47 kcal/mol.

On to ITIHVNGDTYHFDNPEEAEKFAQKMAKTYQLKMEIHNGEFHME [V8D], for which the “folding stability dG” value came out at 1.01 kcal/mol.

In the case of ITIHVNGMTYHFDNPEEAEKFAQKMAKTYQLKMEIHNGEFHME [V8M], the “folding stability dG” value is 1.18 kcal/mol.

Turning to ITIHVNGFTYHFDNPEEAEKFAQKMAKTYQLKMEIHNGEFHME [V8F], the “folding stability dG” value stood at 1.36 kcal/mol.

Turning to ITIHVNGSTYHFDNPEEAEKFAQKMAKTYQLKMEIHNGEFHME [V8S], the “folding stability dG” value worked out at 1.09 kcal/mol.

As to ITIHVNGGTYHFDNPEEAEKFAQKMAKTYQLKMEIHNGEFHME [V8G], the “folding stability dG” value was found to be 0.858 kcal/mol.

Regarding ITIHVNGHTYHFDNPEEAEKFAQKMAKTYQLKMEIHNGEFHME [V8H], the “folding stability dG” value was 1.11 kcal/mol.

Regarding ITIHVNGTTYHFDNPEEAEKFAQKMAKTYQLKMEIHNGEFHME [V8T], the “folding stability dG” value was 1.12 kcal/mol.

Take ITIHVNGETYHFDNPEEAEKFAQKMAKTYQLKMEIHNGEFHME [V8E]: the “folding stability dG” value was found to be 1.09 kcal/mol.

For the variant ITIHVNGRTYHFDNPEEAEKFAQKMAKTYQLKMEIHNGEFHME [V8R], the “folding stability dG” value came out at 1.43 kcal/mol.

As for ITIHVNGLTYHFDNPEEAEKFAQKMAKTYQLKMEIHNGEFHME [V8L], the “folding stability dG” value was 1.19 kcal/mol.

For the variant ITIHVGGVTYHFDNPEEAEKFAQKMAKTYQLKMEIHNGEFHME [N6G], the “folding stability dG” value was 1.14 kcal/mol.

For ITIHVDGVTYHFDNPEEAEKFAQKMAKTYQLKMEIHNGEFHME [N6D], the “folding stability dG” value amounted to 1.11 kcal/mol.

For the variant ITIHVLGVTYHFDNPEEAEKFAQKMAKTYQLKMEIHNGEFHME [N6L], the “folding stability dG” value was found to be 1.79 kcal/mol.

For ITIHVYGVTYHFDNPEEAEKFAQKMAKTYQLKMEIHNGEFHME [N6Y], the “folding stability dG” value is 1.73 kcal/mol.

For the variant ITIHVFGVTYHFDNPEEAEKFAQKMAKTYQLKMEIHNGEFHME [N6F], the “folding stability dG” value was 2.18 kcal/mol.

Regarding ITIHVMGVTYHFDNPEEAEKFAQKMAKTYQLKMEIHNGEFHME [N6M], the “folding stability dG” value amounted to 1.73 kcal/mol.

In the case of ITIHVRGVTYHFDNPEEAEKFAQKMAKTYQLKMEIHNGEFHME [N6R], the “folding stability dG” value was found to be 1.27 kcal/mol.

For the variant ITIHVSGVTYHFDNPEEAEKFAQKMAKTYQLKMEIHNGEFHME [N6S], the “folding stability dG” value was found to be 1.07 kcal/mol.

On to ITIHVHGVTYHFDNPEEAEKFAQKMAKTYQLKMEIHNGEFHME [N6H], for which the “folding stability dG” value is 1.35 kcal/mol.

With ITIHVVGVTYHFDNPEEAEKFAQKMAKTYQLKMEIHNGEFHME [N6V], the “folding stability dG” value came to 1.42 kcal/mol.

On to ITIHVEGVTYHFDNPEEAEKFAQKMAKTYQLKMEIHNGEFHME [N6E], for which the “folding stability dG” value amounted to 1.2 kcal/mol.

As to ITIHVWGVTYHFDNPEEAEKFAQKMAKTYQLKMEIHNGEFHME [N6W], the “folding stability dG” value worked out at 1.88 kcal/mol.

For ITIHVPGVTYHFDNPEEAEKFAQKMAKTYQLKMEIHNGEFHME [N6P], the “folding stability dG” value came out at 0.4 kcal/mol.

In the case of ITIHVKGVTYHFDNPEEAEKFAQKMAKTYQLKMEIHNGEFHME [N6K], the “folding stability dG” value was 1.37 kcal/mol.

On to ITIHVQGVTYHFDNPEEAEKFAQKMAKTYQLKMEIHNGEFHME [N6Q], for which the “folding stability dG” value came to 1.26 kcal/mol.

As for ITIHVTGVTYHFDNPEEAEKFAQKMAKTYQLKMEIHNGEFHME [N6T], the “folding stability dG” value was 1 kcal/mol.

Take ITIHVIGVTYHFDNPEEAEKFAQKMAKTYQLKMEIHNGEFHME [N6I]: the “folding stability dG” value worked out at 1.51 kcal/mol.

ITIHVAGVTYHFDNPEEAEKFAQKMAKTYQLKMEIHNGEFHME [N6A]: the “folding stability dG” value came to 1.3 kcal/mol.

For the variant ITIPVNGVTYHFDNPEEAEKFAQKMAKTYQLKMEIHNGEFHME [H4P], the “folding stability dG” value was found to be 0.265 kcal/mol.

With ITIYVNGVTYHFDNPEEAEKFAQKMAKTYQLKMEIHNGEFHME [H4Y], the “folding stability dG” value worked out at 1.29 kcal/mol.

Take ITISVNGVTYHFDNPEEAEKFAQKMAKTYQLKMEIHNGEFHME [H4S]: the “folding stability dG” value came out at 0.684 kcal/mol.

With ITIKVNGVTYHFDNPEEAEKFAQKMAKTYQLKMEIHNGEFHME [H4K], the “folding stability dG” value was 0.918 kcal/mol.

With ITIRVNGVTYHFDNPEEAEKFAQKMAKTYQLKMEIHNGEFHME [H4R], the “folding stability dG” value turned out to be 1.08 kcal/mol.

With ITILVNGVTYHFDNPEEAEKFAQKMAKTYQLKMEIHNGEFHME [H4L], the “folding stability dG” value is 0.939 kcal/mol.
